Reference: the Immune Epitope Database (IEDB)

Biological target: HLA-A*02:01
Assay: IEDB peptide-MHC binding, purified MHC/competitive/radioactivity; ≥ and ≤ were set here for values at or beyond the usual limits of such assays
Conditions: source organism: Human alphaherpesvirus 1

| Sequence | IC50 |
| --- | --- |
| MLRDRWSLV | 311 nM |
| GMRGLVLAT | 3660 nM |
| LVVTAIVYV | 187 nM |
| MLWTTDKHV | 1290 nM |
| YLCSLAVVL | 17 nM |
| RLQEALAVV | 6.6 nM |
| VTFDTLFMV | 8.7 nM |
| LMDGHTGMV | 184 nM |
| LMFDPRALA | 762 nM |
| ITMGMPYAV | 23 nM |
| LLGGVMAAV | 25 nM |
| EMIRYMALV | 179 nM |
| GMVIACLLV | 252 nM |
| FILDALAQA | 2.6 nM |
| VLPATFAAV | 11 nM |
| LLYDLSTTA | 43 nM |
| HMFCDPMCA | 796 nM |
| ALLGAWPAV | 2.5 nM |
| RLQHLVAEI | 142 nM |
| LLMACAFWC | 974 nM |
| GLLRVGADT | 23900 nM |
| GLFQEAYPL | 5.4 nM |

| Sequence | IC50 |
| --- | --- |
| YLSRTQRLA | 110 nM |
| AIVVVIILV | 6910 nM |
| ALAFDSTRV | 649 nM |
| FMHIWLQAA | 81 nM |
| AMDSDLGSL | 978 nM |
| SLLALNEAL | 54 nM |
| SLLDSLLVM | 76 nM |
| FLMAPDLYV | 6.4 nM |
| FVGVIILGV | 5.9 nM |
| GLGRHLWRL | 133 nM |
| ALPDTVAPV | 9.1 nM |
| ALLPAPITL | 132 nM |
| RLLGFADTV | 27 nM |
| HLCRYVALL | 200 nM |
| FVPYVLALV | 0.9 nM |
| HMGEVPPRL | 1740 nM |
| VLAAGVLVV | 234 nM |
| LLNNYDVLV | 10 nM |
| SMFASCNLL | 29 nM |
| RTAWWVWCV | 26 nM |
| RLLEVMDSL | 144 nM |
| ELACLLMYL | 54 nM |

| Sequence | IC50 |
| --- | --- |
| RLPLYEALV | 95 nM |
| LLLAVAVYA | 93 nM |
| RIQQYMFFM | 81 nM |
| LVWYTVFGA | 346 nM |
| FLWSFLVLK | 1420 nM |
| ILLENLMRA | 19 nM |
| RLYRWQPDL | 916 nM |
| YLARAAGLV | 210 nM |
| LLAENLPGL | 1.1 nM |
| ILFSYDELV | 5.6 nM |
| SLLLVVEGV | 8.8 nM |
| QLLADFPEA | 133 nM |
| MILALTVAI | 45 nM |
| KLLALLGQV | 33 nM |
| AVFGVVAIV | 250 nM |
| LLANNPPPV | 24 nM |
| RLTEDDFGL | 77 nM |
| QLLSAVDYI | 127 nM |
| RLAEAVVSA | 75 nM |
| IIWGELFGV | 2.3 nM |
| NTLMFMVYV | 69 nM |
| RLQFGPPPV | 11 nM |

| Sequence | IC50 |
| --- | --- |
| RLLQSFLKV | 82 nM |
| ALGERLDAV | 25 nM |
| LLYLITNYL | 11 nM |
| FLSRPINTI | 528 nM |
| SQTQPPAPV | 781 nM |
| LLAPGPLFV | 5.6 nM |
| MLDTWNEDL | 102 nM |
| FAASANFFL | 142 nM |
| FTLPVLTFV | 1.1 nM |
| FLSDSEAEA | 2.6 nM |
| RLDAEYWSV | 44 nM |
| VLNTLMFMV | 14 nM |
| FVYTPSPYV | 129 nM |
| SLMNVDAAV | 9.7 nM |
| RLIDRMLTA | 8.6 nM |
| FLRYHCPGL | 188 nM |
| FLTTPVPSL | 111 nM |
| LLFNSLYPA | 1.5 nM |
| AMDLVLAAV | 4.4 nM |
| VLLGAPVVV | 14 nM |
| MQFVDRFVV | 209 nM |
| VVTAIVYVV | 265 nM |

| Sequence | IC50 |
| --- | --- |
| YLREYVTRL | 115 nM |
| AVLADFSLV | 134 nM |
| LMHATYFLA | 96 nM |
| FADSDGHYV | 142 nM |
| MMLRDRWSL | 14 nM |
| FIAPLGFSL | 6.5 nM |
| ILMHATYFL | 1.2 nM |
| ALHTALATV | 16 nM |
| LVLNMVYSI | 94 nM |
| TLRDTIPDC | 1390 nM |
| TLLRLACEV | 65 nM |
| LLYNGAYHL | 7.6 nM |
| FTINIAAYL | 123 nM |
| ILMILIEGI | 12 nM |
| SMDDDTYVA | 546 nM |
| YTFWRLDLV | 30 nM |
| ALMAGYFKI | 49 nM |
| LLDFELACL | 63 nM |
| IILTLIPRL | 127 nM |
